T1: Roc domain (Homo sapiens, UniProt Q5S007)
T1 construct: A construct of the Roc domain spanning the residues 1329-1520 was cloned in the pET-28a vector providing an N-terminal His6-tag; His6 (N); made in house; host or cells: E. coli BL21(DE3)
T1 sequence (Q5S007 1329-1520): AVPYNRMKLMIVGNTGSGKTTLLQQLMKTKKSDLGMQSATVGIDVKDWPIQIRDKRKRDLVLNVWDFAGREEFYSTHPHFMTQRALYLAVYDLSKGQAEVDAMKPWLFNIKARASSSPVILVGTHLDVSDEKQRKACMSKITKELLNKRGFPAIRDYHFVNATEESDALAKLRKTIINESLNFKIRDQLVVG


Legend:
[1] = target: T2, mScarlet-LRRK2 (Homo sapiens, UniProt Q5S007, M2397T/R50H); experiment: Confocal microscopy of LRRK2 microtubule localization in HEK293 cells; format: cell-based; details: HEK293 cells co-transfected with mScarlet-LRRK2 and GFP-Nb, treated with 1 μM MLi-2
T2 construct: expressed in transfected cells; host or cells: HEK293
T2 sequence (Q5S007 whole entry R50H/M2397T): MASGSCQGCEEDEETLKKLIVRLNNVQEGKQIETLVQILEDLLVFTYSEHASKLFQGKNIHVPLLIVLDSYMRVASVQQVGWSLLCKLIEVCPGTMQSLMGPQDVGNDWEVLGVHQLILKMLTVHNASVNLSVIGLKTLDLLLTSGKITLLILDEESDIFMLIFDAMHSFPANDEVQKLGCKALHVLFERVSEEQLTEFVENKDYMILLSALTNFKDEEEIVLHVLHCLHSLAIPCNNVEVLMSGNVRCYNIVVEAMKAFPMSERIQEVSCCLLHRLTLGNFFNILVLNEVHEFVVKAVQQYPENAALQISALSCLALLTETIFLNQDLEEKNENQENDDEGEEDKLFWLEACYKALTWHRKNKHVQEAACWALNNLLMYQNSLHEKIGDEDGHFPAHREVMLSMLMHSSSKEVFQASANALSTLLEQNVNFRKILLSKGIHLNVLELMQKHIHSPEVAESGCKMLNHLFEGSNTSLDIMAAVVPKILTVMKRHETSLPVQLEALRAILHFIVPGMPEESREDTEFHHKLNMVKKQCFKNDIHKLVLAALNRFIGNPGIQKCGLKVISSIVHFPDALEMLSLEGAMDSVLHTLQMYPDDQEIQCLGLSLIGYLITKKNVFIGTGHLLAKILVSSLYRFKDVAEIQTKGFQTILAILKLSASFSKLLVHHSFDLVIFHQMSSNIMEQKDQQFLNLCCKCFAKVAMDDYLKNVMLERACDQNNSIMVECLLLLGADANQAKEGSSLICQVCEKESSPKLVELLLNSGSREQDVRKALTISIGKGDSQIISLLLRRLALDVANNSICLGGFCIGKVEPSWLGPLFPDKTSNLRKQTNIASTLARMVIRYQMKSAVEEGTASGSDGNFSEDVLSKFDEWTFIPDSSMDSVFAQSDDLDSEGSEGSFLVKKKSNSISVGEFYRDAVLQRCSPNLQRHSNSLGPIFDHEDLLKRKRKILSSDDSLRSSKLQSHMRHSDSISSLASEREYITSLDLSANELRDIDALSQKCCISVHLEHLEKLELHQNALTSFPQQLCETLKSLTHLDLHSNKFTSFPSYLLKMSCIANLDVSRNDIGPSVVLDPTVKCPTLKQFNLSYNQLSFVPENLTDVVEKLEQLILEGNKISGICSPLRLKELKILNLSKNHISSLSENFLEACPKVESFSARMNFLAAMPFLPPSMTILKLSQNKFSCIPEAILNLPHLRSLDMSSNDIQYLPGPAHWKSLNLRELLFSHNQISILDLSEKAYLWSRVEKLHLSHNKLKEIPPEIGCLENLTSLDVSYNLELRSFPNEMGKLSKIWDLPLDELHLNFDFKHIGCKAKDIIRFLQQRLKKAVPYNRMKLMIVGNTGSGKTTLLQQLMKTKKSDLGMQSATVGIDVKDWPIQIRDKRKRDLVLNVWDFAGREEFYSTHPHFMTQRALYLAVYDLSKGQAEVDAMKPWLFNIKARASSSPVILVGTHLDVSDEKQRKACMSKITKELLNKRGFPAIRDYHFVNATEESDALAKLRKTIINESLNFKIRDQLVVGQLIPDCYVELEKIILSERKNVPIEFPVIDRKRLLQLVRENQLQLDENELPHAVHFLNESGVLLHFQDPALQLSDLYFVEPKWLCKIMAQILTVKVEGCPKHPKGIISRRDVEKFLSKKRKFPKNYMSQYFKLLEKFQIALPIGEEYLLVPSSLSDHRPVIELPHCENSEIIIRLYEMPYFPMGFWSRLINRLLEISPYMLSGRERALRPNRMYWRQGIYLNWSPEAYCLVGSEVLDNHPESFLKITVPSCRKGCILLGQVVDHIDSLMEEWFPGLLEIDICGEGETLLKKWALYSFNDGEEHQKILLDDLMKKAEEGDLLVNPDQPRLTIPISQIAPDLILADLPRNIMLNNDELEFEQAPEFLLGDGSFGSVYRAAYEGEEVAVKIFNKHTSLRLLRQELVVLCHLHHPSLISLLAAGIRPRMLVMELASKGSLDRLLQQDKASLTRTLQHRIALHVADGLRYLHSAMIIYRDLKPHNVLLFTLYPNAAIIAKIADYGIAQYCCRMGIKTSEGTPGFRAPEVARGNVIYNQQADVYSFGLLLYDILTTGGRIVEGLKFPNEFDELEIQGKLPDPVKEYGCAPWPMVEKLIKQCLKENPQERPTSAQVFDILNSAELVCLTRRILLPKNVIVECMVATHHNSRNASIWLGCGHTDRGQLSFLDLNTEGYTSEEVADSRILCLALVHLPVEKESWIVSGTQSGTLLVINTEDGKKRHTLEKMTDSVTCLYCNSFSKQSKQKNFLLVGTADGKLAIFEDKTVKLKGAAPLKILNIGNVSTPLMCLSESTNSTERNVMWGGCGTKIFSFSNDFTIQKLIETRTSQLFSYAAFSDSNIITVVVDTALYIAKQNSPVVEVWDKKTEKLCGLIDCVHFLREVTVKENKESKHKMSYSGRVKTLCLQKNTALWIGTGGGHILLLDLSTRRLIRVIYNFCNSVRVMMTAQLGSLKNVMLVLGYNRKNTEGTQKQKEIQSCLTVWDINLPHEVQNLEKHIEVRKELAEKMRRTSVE
Excerpt: HEK 293 cells were co-transfected with the indicated GFP-Nbs and mScarlet-LRRK2. […] Scale bar 5 μm.
FIG. 6. […] Scale bar 5 μm.
The binding of LRRK2 to microtubules subsequently reduces the kinesin—and dynein-mediated transport along microtubules.
Recent structural information has linked LRRK2 microtubule relocalization to the conformation of the kinase domain, with a closed conformation favoring LRRK2 binding to microtubules. As a consequence, the commonly used ATP-competitive type I LRRK2 inhibitors trigger this effect. In addition, it was shown before that the WD40 domain is indispensable for LRRK2-microtubule association.
A HEK293 cell line was cultured in complete media (high-glucose Dulbecco's modified Eagle's medium, 10% fetal bovine serum and Penicillin-Streptomycin-Glutamine (Gibco)). Cells were seeded on 8-well p-Slide(Ibidi) and transfected at a confluency of 50-70% with GFP-Nb and mScarlet-LRRK2 constructs, using JetPEI reagent (Polyplus transfection). […] Data acquisition was done with a ×100 oil-immersion objective with a Zeiss LSM800 confocal laser scanning microscope. Image analysis of z-scan was done using the Zeiss microscope software ZEN.

[2] = target: T3, LRRK2 (Homo sapiens, UniProt Q5S007, M2397T/R50H); experiment: Determination of kinase inhibition mechanism (Michaelis-Menten curves at varying ATP); format: biochemical; details: for mechanism of inhibition vis-a-vis ATP as substrate: Lineweaver-Burk plot and global fit; for α-value: global fit, mixed inhibition model, 10 μM AQT0615, varying ATP
T3 construct: Full-length human LRRK2 was expressed and purified based on previously developed protocols; SF tag (FLAG-tag + Twin-Strep-tag); made in house; host or cells: HEK 293T
T3 sequence (Q5S007 whole entry R50H/M2397T): as above
Experimental: FIGS. 11A-11C, Dose-response curves (upper panels) for the inhibition of the in vitro LRRK2 kinase activity by the group1 Nbs: Nb1 (FIG. 11A), Nb6 (FIG. 11B) and Nb23 (FIG. 11C), where the Nb concentration was varied from 200 or 150 μM to 0.006 μM in a two-fold serial dilution. The two lower panels show the Michaelis-Menten curves obtained for LRRK2 at varying concentrations of ATP and a fixed (sub-saturating) concentration of peptide substrate (AQT0615), and at varying concentrations of Nb1 (FIG. 11A), Nb6 (FIG. 11B) and Nb23 (FIG. 11C), and the corresponding linearizations according to the Lineweaver-Burk method (double-reciprocal plot). The Nb concentrations used are indicated below the plots. Each datapoint reflects the average (±SD) of three independent measurements.
To further confirm this, we set out to determine the mechanism of inhibition (competitive vs. uncompetitive vs. mixed/non-competitive) of these three Nbs vis-h-vis ATP as substrate, using our peptide phosphorylation assays as output. To this end, full Michaelis-Menten curves were obtained at a fixed (probably sub-saturating) concentration of peptide substrate (10 μM) and varying concentrations of ATP (FIGS. 11A-11C). […] This confirms that these Nbs are not competing with ATP for binding and that they inhibit the reaction by binding on an allosteric site, which is in agreement with the ELISA and CL-MS epitope mapping data. […] For CA12618, fitting on the same model yields a Kic^app of 5±1 μM with an α-value of 1.6±0.4, corresponding a Kic^app of 5 μM and a Kic^app of […]. For the kinase domain-binding CA13612, the linearized curves intersect closer to the Y-axis indicating a mechanism which is more ATP-competitive like. […] Fitting on a mixed inhibition model for CA13612 gives a Kic^app of 9±1 μM with an α-value of 7.5±1.9, corresponding a Kic^app of 9 μM and a Kic^app of 66 μM.
To determine the mechanism of inhibition and apparent Ki (Ki^app) values of CA12610, CA12618, CA13612 the PhosphoSens® Protein Kinase Assay (AssayQuant Technologies Inc.) in combination with the AQT0615 peptide substrate was used. Full Michaelis-Menten curves (relative velocity versus [ATP]) in presence of different Nb concentrations were collected at 30° C. in a buffer consisting of 50 mM HEPES pH 7.5, 0.1% Brij-35, 50 mM NaCl, 10 mM MgCl2 and […], using a fixed concentration of AQT0615 (10 μM) and varying concentrations of ATP. The LRRK2 concentration was chosen such that initial rates (linear fluorescence versus time curves) were obtained, and LRRK2, ATP and the Nbs were preincubated at 4° C. for 30 min prior to starting the reaction by adding the peptide substrate. The Michaelis-Menten curves for the different Nb concentrations were globally fit on a mixed-inhibition model using GraphPad Prism, according to the equation:
(with Kic^app=Ki^app and Ki^app−a·Ki^app)
Additionally, as a diagnostic tool, Michaelis-Menten curves were linearized using the Lineweaver-Burk (double reciprocal) plot.

[3] = target: T1, Roc domain; experiment: Analytical size exclusion chromatography; format: binding; details: data not shown

Molecule | effect on MLi-2-induced recruitment of LRRK2 to microtubules [1] | mechanism of inhibition vis-a-vis ATP as substrate [2] | α-value [2] | binding to Roc [3]
Nb1: LRRK2-specific Nanobody, SEQ ID NO: 1 (protein, Nanobody CA12610) VHH: MAQVQLVESGGGLVQAGGSLRLSCVASGRIFSGNAMGWYRQAPGRQRELVAGITNGGYTNYRQFVKGRFTISRDNAKRTVYLQMNSLKPEDTAVYYCNALDREARQVDYWGQGTQVTVSS | – | mixed-type inhibition | 1.8±0.5 | –
Nb23: LRRK2-specific Nanobody, SEQ ID NO: 3 (protein, Nanobody CA13612) VHH: MAQVQLVESGGGLVQAGGSLRLSCAASGRTFSRYTMGWFRQAPGKDREFVARITTSGAVTTYADSAKGRFTISRDNAKNTVYLQMNTLKPEDTAVYYCAAGQGQLSSQSRFVDYWGQGTQVTVSS | rescuing effect is most prominent | mixed-inhibition mechanism | 7.5±1.9 | –
Nb6: LRRK2-specific Nanobody, SEQ ID NO: 2 (protein, Nanobody CA12618) VHH: MAQVQLVESGGGLVQAGGSLRLSCAASGSIFSPTAMGWYRQAPGKERELVAGITSGGYTNYRNFARGRFTISRDNAKKTVYLQMNSLNPEDTAVYYCNTLTISWSWGQGTQVTVSS | – | mixed-type inhibition | 1.6±0.4 | –

Next, values leading:

effect on MLi-2-induced recruitment of LRRK2 to microtubules [1] | mechanism of inhibition vis-a-vis ATP as substrate [2] | α-value [2] | binding to Roc [3] | Molecule
rescuing effect is most prominent | – | – | – | Nb22: LRRK2-specific Nanobody, SEQ ID NO: 9 (protein, Nanobody CA13611) VHH: MAQVQLVESGGGLVQAGGSLRLSCAASGRTFSSYTMGWFRQAPGKEREFVAAIRWSGGSTYYADSVKGRFTISRDNAKNTVYLQMNSLKPEDTAVYYCAASDRGGFIATSGGWMDYWGKGTQVTVSS
– | – | – | binding to Roc was confirmed | Nb42: LRRK2-specific Nanobody, SEQ ID NO: 6 (protein, Nanobody CA14259) VHH: MAQVQLVESGGGLVQAGGSLRLSCAASGDVNYAVGWFRQAPRKEREFVAAINWRGDNTDYTDSVKGRFTISRDNAKNTVYLQMNSLKPEDTAVYYCAAKSAPYWYSDIAPDYWGQGTQVTVSS
